T1: human complement factor C4, P0C0L4
T1 chain: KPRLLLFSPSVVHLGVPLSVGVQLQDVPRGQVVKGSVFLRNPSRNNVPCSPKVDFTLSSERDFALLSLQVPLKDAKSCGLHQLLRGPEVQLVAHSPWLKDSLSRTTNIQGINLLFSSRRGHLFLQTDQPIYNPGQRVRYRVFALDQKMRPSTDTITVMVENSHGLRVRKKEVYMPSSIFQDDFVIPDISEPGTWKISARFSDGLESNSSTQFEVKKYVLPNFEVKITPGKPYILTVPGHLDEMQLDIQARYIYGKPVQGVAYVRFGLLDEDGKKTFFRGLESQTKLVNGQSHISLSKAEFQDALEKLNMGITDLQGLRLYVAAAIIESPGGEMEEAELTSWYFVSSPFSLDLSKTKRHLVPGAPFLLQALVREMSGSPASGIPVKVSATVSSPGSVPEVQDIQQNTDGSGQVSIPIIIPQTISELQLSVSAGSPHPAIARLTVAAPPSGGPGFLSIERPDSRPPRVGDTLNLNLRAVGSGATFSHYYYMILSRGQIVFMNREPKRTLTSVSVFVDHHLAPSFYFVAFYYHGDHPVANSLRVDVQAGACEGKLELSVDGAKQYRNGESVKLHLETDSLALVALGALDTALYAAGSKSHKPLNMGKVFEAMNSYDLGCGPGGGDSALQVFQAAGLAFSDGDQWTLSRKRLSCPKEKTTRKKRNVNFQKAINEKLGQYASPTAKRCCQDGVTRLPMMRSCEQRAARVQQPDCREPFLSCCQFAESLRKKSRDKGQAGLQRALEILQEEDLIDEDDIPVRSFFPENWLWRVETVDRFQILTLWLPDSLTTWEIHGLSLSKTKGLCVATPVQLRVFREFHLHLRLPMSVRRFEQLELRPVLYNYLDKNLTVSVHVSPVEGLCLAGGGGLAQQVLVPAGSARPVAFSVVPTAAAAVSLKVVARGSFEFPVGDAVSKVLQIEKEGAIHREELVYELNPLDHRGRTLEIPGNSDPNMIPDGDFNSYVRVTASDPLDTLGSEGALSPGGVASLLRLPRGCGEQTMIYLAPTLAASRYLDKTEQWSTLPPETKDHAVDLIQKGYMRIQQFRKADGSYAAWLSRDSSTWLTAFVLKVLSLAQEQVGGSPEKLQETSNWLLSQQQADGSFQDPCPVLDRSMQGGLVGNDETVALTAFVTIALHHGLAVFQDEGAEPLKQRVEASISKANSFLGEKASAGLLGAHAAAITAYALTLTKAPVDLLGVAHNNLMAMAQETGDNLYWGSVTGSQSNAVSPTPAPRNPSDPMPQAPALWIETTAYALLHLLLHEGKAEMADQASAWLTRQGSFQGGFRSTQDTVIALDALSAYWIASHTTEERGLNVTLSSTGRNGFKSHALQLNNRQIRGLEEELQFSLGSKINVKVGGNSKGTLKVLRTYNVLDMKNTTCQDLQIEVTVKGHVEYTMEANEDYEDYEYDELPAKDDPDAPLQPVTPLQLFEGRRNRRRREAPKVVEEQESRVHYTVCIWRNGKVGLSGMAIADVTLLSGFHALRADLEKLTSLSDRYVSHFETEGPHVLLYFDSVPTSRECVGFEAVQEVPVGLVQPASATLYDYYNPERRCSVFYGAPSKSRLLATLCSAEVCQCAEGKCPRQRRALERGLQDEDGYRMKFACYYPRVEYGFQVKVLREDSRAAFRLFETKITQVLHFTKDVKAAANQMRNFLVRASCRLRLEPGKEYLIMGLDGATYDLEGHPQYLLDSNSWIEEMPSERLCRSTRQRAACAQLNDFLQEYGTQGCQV


Biological target: T1, human complement factor C4, P0C0L4

Protein	C4 deposition on a Western blot incubated with human serum (C4 activation)
C1r from human serum C1 (protein) SIPIPQKLFGEVTSPLFPKPYPNNFETTTVITVPTGYRVKLVFQQFDLEPSEGCFYDYVKISADKKSLGRFCGQLGSPLGNPPGKKEFMSQGNKMLLTFHTDFSNEENGTIMFYKGFLAYYQAVDLDECASRSKSGEEDPQPQCQHLCHNYVGGYFCSCRPGYELQEDRHSCQAECSSELYTEASGYISSLEYPRSYPPDLRCNYSIRVERGLTLHLKFLEPFDIDDHQQVHCPYDQLQIYANGKNIGEFCGKQRPPDLDTSSNAVDLLFFTDESGDSRGWKLRYTTEIIKCPQPKTLDEFTIIQNLQPQYQFRDYFIATCKQGYQLIEGNQVLHSFTAVCQDDGTWHRAMPRCKIKDCGQPRNLPNGDFRYTTTMGVNTYKARIQYYCHEPYYKMQTRAGSRESEQGVYTCTAQGIWKNEQKGEKIPRCLPVCGKPVNPVEQRQRIIGGQKAKMGNFPWQVFTNIHGRGGGALLGDRWILTAAHTLYPKEHEAQSNASLDVFLGHTNVEELMKLGNHPIRRVSVHPDYRQDESYNFEGDIALLELENSVTLGPNLLPICLPDNDTFYDLGLMGYVSGFGVMEEKIAHDLRFVRLPVANPQACENWLRGKNRMDVFSQNMFCAGHPSLKQDACQGDSGGVFAVRDPNTDRWVATGIVSWGIGCSRGYGFYTKVLNYVDWIKKEMEEED	C4 deposition, which could be inhibited by enzyme inhibitors, was observed at a position corresponding to C1r and C1s, which are not separated by the technique employed
C1s from human serum C1 (protein) EPTMYGEILSPNYPQAYPSEVEKSWDIEVPEGYGIHLYFTHLDIELSENCAYDSVQIISGDTEEGRLCGQRSSNNPHSPIVEEFQVPYNKLQVIFKSDFSNEERFTGFAAYYVATDINECTDFVDVPCSHFCNNFIGGYFCSCPPEYFLHDDMKNCGVNCSGDVFTALIGEIASPNYPKPYPENSRCEYQIRLEKGFQVVVTLRREDFDVEAADSAGNCLDSLVFVAGDRQFGPYCGHGFPGPLNIETKSNALDIIFQTDLTGQKKGWKLRYHGDPMPCPKEDTPNSVWEPAKAKYVFRDVVQITCLDGFEVVEGRVGATSFYSTCQSNGKWSNSKLKCQPVDCGIPESIENGKVEDPESTLFGSVIRYTCEEPYYYMENGGGGEYHCAGNGSWVNEVLGPELPKCVPVCGVPREPFEEKQRIIGGSDADIKNFPWQVFFDNPWAGGALINEYWVLTAAHVVEGNREPTMYVGSTSVQTSRLAKSKMLTPEHVFIHPGWKLLEVPEGRTNFDNDIALVRLKDPVKMGPTVSPICLPGTSSDYNLMDGDLGLISGWGRTEKRDRAVRLKAARLPVAPLRKCKEVKVEKPTADAEAYVFTPNMICAGGEKGMDSCKGDSGGAFAVQDPNDKTKFYAAGLVSWGPQCGTYGLYTRVKNYVDWIMKTMQENSTPRED	C4 deposition, which could be inhibited by enzyme inhibitors, was observed at a position corresponding to C1r and C1s, which are not separated by the technique employed
mannan-binding lectin associated serine protease-2 (MASP-2), 76 kDa protein from human plasma (protein) TPLGPKWPEPVFGRLASPGFPGEYANDQERRWTLTAPPGYRLRLYFTHFDLELSHLCEYDFVKLSSGAKVLATLCGQESTDTERAPGKDTFYSLGSSLDITFRSDYSNEKPFTGFEAFYAAEDIDECQVAPGEAPTCDHHCHNHLGGFYCSCRAGYVLHRNKRTCSALCSGQVFTQRSGELSSPEYPRPYPKLSSCTYSISLEEGFSVILDFVESFDVETHPETLCPYDFLKIQTDREEHGPFCGKTLPHRIETKSNTVTITFVTDESGDHTGWKIHYTSTAQPCPYPMAPPNGHVSPVQAKYILKDSFSIFCETGYELLQGHLPLKSFTAVCQKDGSWDRPMPACSIVDCGPPDDLPSGRVEYITGPGVTTYKAVIQYSCEETFYTMKVNDGKYVCEADGFWTSSKGEKSLPVCEPVCGLSARTTGGRIYGGQKAKPGDFPWQVLILGGTTAAGALLYDNWVLTAAHAVYEQKHDASALDIRMGTLKRLSPHYTQAWSEAVFIHEGYTHDAGFDNDIALIKLNNKVVINSNITPICLPRKEAESFMRTDDIGTASGWGLTQRGFLARNLMYVDIPIVDHQKCTAAYEKPPYPRGSVTANMLCAGLESGGKDSCRGDSGGALVFLDSETERWFVGGIVSWGSMNCGEAGQYGVYTKVINYIPWIENIISDF	C4 was deposited at a position corresponding to the MASP-2 band
MASP-1 (MBP-associated serine protease) from human plasma (protein) HTVELNNMFGQIQSPGYPDSYPSDSEVTWNITVPDGFRIKLYFMHFNLESSYLCEYDYVKVETEDQVLATFCGRETTDTEQTPGQEVVLSPGSFMSITFRSDFSNEERFTGFDAHYMAVDVDECKEREDEELSCDHYCHNYIGGYYCSCRFGYILHTDNRTCRVECSDNLFTQRTGVITSPDFPNPYPKSSECLYTIELEEGFMVNLQFEDIFDIEDHPEVPCPYDYIKIKVGPKVLGPFCGEKAPEPISTQSHSVLILFHSDNSGENRGWRLSYRAAGNEPELQPPVHGKIEPSQAKYFFKDQVLVSCDTGYKVLKDNVEMDTFQIECLKDGTWSNKIPTCKIVDCRAPGELEHGLITFSTRNNLTTYKSEIKYSCQEPYYKMLNNNTGIYTCSAQGVWMNKVLGRSLPTCLPVCGLPKFSRKLMARIFNGRPAQKGTTPWIAMLSHLNGQPFCGGSLLGSSWIVTAAHCLHQSLDPKDPTLRDSDLLSPSDFKIILGKHWRLRSDENEQHLGVKHTTLHPKYDPNTFENDVALVELLESPVLNAFVMPICLPEGPQQEGAMVIVSGWGKQFLQRFPETLMEIEIPIVDHSTCQKAYAPLKKKVTRDMICAGEKEGGKDACSGDSGGPMVTLNRERGQWYLVGTVSWGDDCGKKDRYGVYSYIHHNKDWIQRVTGVRN	no C4 deposition was observed at positions corresponding to MASP-1

From patent US7083786
